The source of these data is paper doi:10.1101/2023.06.13.544671.

This test deals with RSC chromatin remodeling complex with Sth1-3xFlag-HaloTag (S. cerevisiae) (UniProt P32597). Description: two-colour single-molecule colocalisation on DNA (optical tweezers with confocal microscopy); RSC-JFX554 with ISW2-JFX650, or RSC-JFX554 with RSC-JFX650, diffusing on naked lambda DNA stretched to 5 pN; 10 mM Tris pH 7.4, 50 mM KCl, 3 mM MgCl2, 0.1 mg/ml BSA, Trolox; colocalisation threshold 0.31 um (RSC-RSC) and 0.29 um (RSC-ISW2); single exponential fits of dwell times.

Substance “ISW2 chromatin remodeling complex with Isw2-3xFlag-HaloTag (from UniProt Q08773 1-1120)” displayed a half-life of long colocalisation with co-diffusion, on DNA of 0.68 s. “RSC chromatin remodeling complex with Sth1-3xFlag-HaloTag (from UniProt P32597 1-1359)” yielded a half-life of long colocalisation with co-diffusion, on DNA of 0.7 s.
